Reference: patent publication US7772001B2, “Directed differentiation of embryonic stem cells into an endoderm cell” (Yissum Research Development Company Of the Hebrew …, priority 2000, dated 2010)
Entries after “also recorded” stand apart in the source; their conditions may differ.

Experiments:
[1] = system: human differentiated embryonic (DE) cells; assay: Morphology of DE cells cultured with growth factors; assay type: cell-based; details: several days on plastic, continuous exposure to growth factor (FIG. 1B)
Experimental: (§1) Cell Culture: Human embryonic stem cells were grown on a feeder layer of mouse embryonic fibroblasts (MEF) and then transferred to gelatin coated plates and cultured further to reduce the number of murine cells in the culture. Differentiation into embryoid bodies (EBs) was initiated by transfer to Petri dishes, where the embryoid bodies remained in suspension. After 5 days, the EBs become dissociated and cells are cultured as a monolayer forming differentiated embryonic (DE) cells. This protocol allows for initial differentiation of the human embryonic stem cells as aggregates and further differentiation as a monolayer wherein cells can be exposed to exogenous growth factors. The DE cells were cultured for 10 days in the presence of 8 different growth factors: NGF, bFGF, Activin-A, TGFβ1, HGF, EGF, BMP4 and retinoic acid (RA) (FIG. 1A).
To induce formation of EBs, ES cells were transferred using trypsin/EDTA (0.1%/l mM) to plastic Petri dishes to allow their aggregation and prevent adherence to the plate. Human EBs were grown in the same culture medium, except that it lacked leukemia inhibitory factor (LIF) and bFGF. The EBs were cultured for 5 days and then dissociated and plated on tissue culture plates coated with 50 μg/ml Fibronectin (Boehringer Mannheim). […]

[2] = system: human differentiated embryonic (DE) cells; assay: RT-PCR of cell specific genes in DE cells treated with growth factors; assay type: cell-based; details: for overall induction or repression of cell specific expression (FIG. 3B): at least three experiments
Experimental: as §1
To induce formation of EBs, ES cells were transferred using trypsin/EDTA (0.1%/l mM) to plastic Petri dishes to allow their aggregation and prevent adherence to the plate. Human EBs were grown in the same culture medium, except that it lacked leukemia inhibitory factor (LIF) and bFGF. The EBs were cultured for 5 days and then dissociated and plated on tissue culture plates coated with 50 μg/ml Fibronectin (Boehringer Mannheim). The cells were grown in the presence of the following human recombinant growth factors used singly or in groups: Basic Fibroblast Growth Factor (bFGF) (Swoboda et al, 1999)—10 ng/ml (Gibco BRL); Transforming Growth Factor Beta 1 (TGFβ1) (Swoboda et al, 1999)—2 ng/ml (R&D Systems); Activin-A (Slager et al, 1993)—20 ng/ml (R&D Systems); Bone Morphogenic Protein 4 (BMP-4) (Slager et al, 1993; Bain et al, 1996)—10 ng/ml (R&D Systems); Hepatocyte Growth Factor (HGF)/Scatter Factor (Doetsch et al, 1999)—20 ng/ml (R&D Systems); Epidermal Growth Factor (EGF) (Doetsch et al, 1999)—100 ng/ml (R&D Systems); βNerve Growth Factor (NGF) (Johansson et al, 1999)—100 ng/ml (R&D Systems); Retinoic acid (RA) (Deacon et al, 1998; Peschanski et al, 1995)—1 μM (Sigma). Under these conditions the differentiated embryonic (DE) cells were grown for another 10 days. All of the examined growth factors are absent from the KnockOut™ serum replacement in which the embryonic cells were cultured.
RT-PCR Analysis: Total RNA was extracted using Atlas™ Pure Total RNA Kit (Clontech). cDNA was synthesized from 1 μg total RNA, using Atlas™ RT-for-PCR Kit (Clontech). cDNA samples were subjected to PCR amplification with DNA primers selective for the human genes. For each gene, the DNA primers were derived from different exons to ensure that the PCR product represents the specific mRNA species and not genomic DNA. PCR was performed using the Clontech Advantaq+™ RT-PCR kit and using a two-step cycle at 68° C.
Primers were synthesized for the following genes: neurofilament heavy chain (NF-H), phosphoprotein enriched in astrocytes (PEA-15), Keratin, Dopamine β Hydroxylase (DβH), Follicular Stimulating Hormone (FSH), Enolase, Myosin light polypeptide2 (myosin), Cartilage Matrix Protein (CMP), Renin, Kallikrein, Wilms Tumor 1 (WTI), β-Globin (β-Glob), δ-Globin (δ-Glob), Cardiac Actin (cACT), Albumin, α1 anti-trypsin (α1 AT), Lipase, Amylase, PDX-1, Insulin, Glucagon, Surfactant, Parathyroid Hormone (PTH), α-feto protein (αFP), Retinoic Acid Receptor type alpha (RAR), Hepatocyte Growth Factor Receptor (c-Met), Nerve Growth Factor Receptor (NGFR), Fibroblast Growth Factor Receptor type I (FGFRI), Transforming Growth Factor Receptor type II (TGFRII), Epidermal Growth Factor Receptor type (EGFR), Activin Receptor type IIB (ACTRIIB), Bone Morphogenic Protein 4 Receptor type II (BMP4RII), Octamer Binding Protein 4 (Oct 4), Glyceraldehyde 3-phosphate dehydrogenase (G3PD), β-Actin. Also incorporated by reference, see http://www.ls.huji.ac.il/˜nissimb/factors_es/primers.html-ente.
The differentiation induced by growth factors was further examined by determining the expression of a panel of 24 cell specific genes using RT-PCR. […]

[3] = vs control without growth factor (FIG. 4)

Row | Molecule | cell morphology found in treated culture [1] | overall induction or repression of cell specific expression (FIG. 3B) [2] | blood formation [2, 3] | differentiation into Mullerian duct cells [2, 3] | differentiation into chondrocytes [2, 3] | differentiation into ectodermal cells [2, 3] | differentiation into endodermal cells [2, 3] | differentiation into kidney cells [2, 3] | differentiation into mesodermal cells [2, 3] | differentiation into skin cells [2, 3]
1 | Activin-A: human recombinant Activin-A, 20 ng/ml (protein, UniProt P08476 311-426, looked up) Inhibin beta A chain: GLECDGKVNICCKKQFFVSFKDIGWNDWIIAPSGYHANYCEGECPSHIAGTSGSSLSFHSTVINHYRMRGHSPFANLKSCCVPTKLRPMSMLYYDDGQNIIKKDIQNMIVEECGCS | muscle like syncytiums | mostly repress or fail to direct differentiation of as many cell types | inhibit | inhibit | inhibit | inhibit | inhibit | inhibit | allow differentiation into selected mesodermal cells | 
2 | BMP-4: human recombinant Bone Morphogenic Protein 4, 10 ng/ml (protein, UniProt P12644 293-408, looked up) Bone morphogenetic protein 4: SPKHHSQRARKKNKNCRRHSLYVDFSDVGWNDWIVAPPGYQAFYCHGDCPFPLADHLNSTNHAIVQTLVNSVNSSIPKACCVPTELSAISMLYLDEYDKVVLKNYQEMVVEGCGCR | large round cells | mostly repress or fail to direct differentiation of as many cell types | reduced |  | reduced | allow or induce |  |  | allow or induce; also recorded: inhibits differentiation of all other mesodermal cells examined | apparently permitting skin cells to form
